From paper PMC10397247
One block for each binder: values may come before it.

Tests used:
[1] = biological target: T1, 4H619-bA; assay: two-hybrid library CCNG1;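 note: natural log of median RNA to DNA barcode read ratio; higher means stronger binding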
T1 chain: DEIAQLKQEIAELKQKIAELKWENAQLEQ

[2] = biological target: T2, 4H906-bA; assay: two-hybrid library CCNG1;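 note: natural log of median RNA to DNA barcode read ratio; higher means stronger binding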
T2 chain: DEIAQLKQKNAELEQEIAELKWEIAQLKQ

[3] = biological target: T3, 4H850-bA; assay: two-hybrid library CCNG1;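 note: natural log of median RNA to DNA barcode read ratio; higher means stronger binding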
T3 chain: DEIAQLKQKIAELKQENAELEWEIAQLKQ

[4] = biological target: T4, 4H797-bH; assay: two-hybrid library CCNG1;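 note: natural log of median RNA to DNA barcode read ratio; higher means stronger binding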
T4 chain: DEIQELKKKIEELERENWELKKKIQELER

[5] = biological target: T5, 4H72-bH; assay: two-hybrid library CCNG1;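 note: natural log of median RNA to DNA barcode read ratio; higher means stronger binding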
T5 chain: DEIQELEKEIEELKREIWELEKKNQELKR

[6] = biological target: T6, 4H568-bH; assay: two-hybrid library CCNG1;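 note: natural log of median RNA to DNA barcode read ratio; higher means stronger binding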
T6 chain: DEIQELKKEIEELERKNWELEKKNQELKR

[7] = biological target: T7, 4H918-bH; assay: two-hybrid library CCNG1
T7 chain: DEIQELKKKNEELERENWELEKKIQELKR

[8] = biological target: T8, 4H3855-bH; assay: two-hybrid library CCNG1
T8 chain: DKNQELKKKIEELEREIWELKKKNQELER

[9] = biological target: T9, 4H967-bH; assay: two-hybrid library CCNG1
T9 chain: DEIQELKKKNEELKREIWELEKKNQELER

[10] = biological target: T10, 4H953-bH; assay: two-hybrid library CCNG1
T10 chain: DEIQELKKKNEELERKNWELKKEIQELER

[11] = biological target: T11, 4H4001-bH; assay: two-hybrid library CCNG1
T11 chain: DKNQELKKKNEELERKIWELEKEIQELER

[12] = biological target: T12, 4H717-bH; assay: two-hybrid library CCNG1
T12 chain: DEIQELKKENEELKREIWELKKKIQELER

[13] = biological target: T13, 4H883-bH; assay: two-hybrid library CCNG1
T13 chain: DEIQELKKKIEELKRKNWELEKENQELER

[14] = biological target: T14, O8-bA; assay: two-hybrid library CCNG1
T14 chain: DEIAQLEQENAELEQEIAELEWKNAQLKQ

[15] = biological target: T15, 4H607-bH; assay: two-hybrid library CCNG1
T15 chain: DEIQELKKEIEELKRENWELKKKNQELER

[16] = biological target: T16, 4H687-bH; assay: two-hybrid library CCNG1
T16 chain: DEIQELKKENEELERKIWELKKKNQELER

[17] = biological target: T17, 4H454-bH; assay: two-hybrid library CCNG1
T17 chain: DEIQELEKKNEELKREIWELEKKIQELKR

[18] = biological target: T18, 4H908-bH; assay: two-hybrid library CCNG1
T18 chain: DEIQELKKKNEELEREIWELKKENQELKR

[19] = biological target: T19, 4H683-bA; assay: two-hybrid library CCNG1
T19 chain: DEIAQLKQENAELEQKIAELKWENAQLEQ

[20] = biological target: T20, 4H918-bA; assay: two-hybrid library CCNG1
T20 chain: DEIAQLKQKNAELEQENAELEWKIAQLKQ

[21] = biological target: T21, 4H754-bA; assay: two-hybrid library CCNG1
T21 chain: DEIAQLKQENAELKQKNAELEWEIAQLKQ

[22] = biological target: T22, 4H855-bA; assay: two-hybrid library CCNG1
T22 chain: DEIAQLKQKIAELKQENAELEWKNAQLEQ

[23] = biological target: T23, 4H953-bA; assay: two-hybrid library CCNG1
T23 chain: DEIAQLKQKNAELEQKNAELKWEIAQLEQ

[24] = biological target: T24, 4H797-bA; assay: two-hybrid library CCNG1
T24 chain: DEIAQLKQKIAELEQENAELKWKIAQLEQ

[25] = biological target: T25, 4H780-bA; assay: two-hybrid library CCNG1
T25 chain: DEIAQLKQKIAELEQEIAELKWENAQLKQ

[26] = biological target: T26, 4H968-bA; assay: two-hybrid library CCNG1
T26 chain: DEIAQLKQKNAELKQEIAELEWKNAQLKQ

[27] = biological target: T27, 4H3591-AA; assay: two-hybrid library CCmax; settings: mean of both orientations
T27 chain: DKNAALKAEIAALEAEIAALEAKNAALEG

[28] = biological target: T28, 4H3066-AA; assay: two-hybrid library CCmax; settings: mean of both orientations
T28 chain: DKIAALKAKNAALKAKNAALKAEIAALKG

[29] = biological target: T29, 4H3102-AA; assay: two-hybrid library CCmax; settings: mean of both orientations
T29 chain: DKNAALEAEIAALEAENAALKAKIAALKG

[30] = biological target: T30, 4H3920-AA; assay: two-hybrid library CCmax; settings: mean of both orientations
T30 chain: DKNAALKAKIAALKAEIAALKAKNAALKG

[31] = biological target: T31, 4H656-AA; assay: two-hybrid library CCmax; settings: mean of both orientations
T31 chain: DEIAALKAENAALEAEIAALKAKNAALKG

[32] = biological target: T32, 4H3446-AA; assay: two-hybrid library CCmax; settings: mean of both orientations
T32 chain: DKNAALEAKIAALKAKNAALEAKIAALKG

[33] = biological target: T33, 4H3029-AA; assay: two-hybrid library CCmax; settings: mean of both orientations
T33 chain: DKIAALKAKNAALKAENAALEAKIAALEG

[34] = biological target: T34, 4H675-AA; assay: two-hybrid library CCmax; settings: mean of both orientations
T34 chain: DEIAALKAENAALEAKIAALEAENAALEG

[35] = biological target: T35, 4H3939-AA; assay: two-hybrid library CCmax; settings: mean of both orientations
T35 chain: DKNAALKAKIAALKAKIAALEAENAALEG

[36] = biological target: T36, 4H497-AA; assay: two-hybrid library CCmax; settings: mean of both orientations
T36 chain: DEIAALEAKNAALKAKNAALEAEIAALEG

[37] = biological target: T37, 4H3666-AA; assay: two-hybrid library CCmax; settings: mean of both orientations
T37 chain: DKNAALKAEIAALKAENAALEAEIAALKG

[38] = biological target: T38, 4H391-AA; assay: two-hybrid library CCmax; settings: mean of both orientations
T38 chain: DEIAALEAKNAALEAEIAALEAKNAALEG

[39] = biological target: T39, 4H428-AA; assay: two-hybrid library CCmax; settings: mean of both orientations
T39 chain: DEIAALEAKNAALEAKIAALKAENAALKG

[40] = biological target: T40, 4H3709-AA; assay: two-hybrid library CCmax; settings: mean of both orientations
T40 chain: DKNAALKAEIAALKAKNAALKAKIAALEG

[41] = biological target: T41, 4H3121-AA; assay: two-hybrid library CCmax; settings: mean of both orientations
T41 chain: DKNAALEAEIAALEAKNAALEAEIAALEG

[42] = biological target: T42, 4H478-AA; assay: two-hybrid library CCmax; settings: mean of both orientations
T42 chain: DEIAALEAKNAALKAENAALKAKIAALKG

[43] = biological target: T43, 4H971-AA; assay: two-hybrid library CCmax; settings: mean of both orientations
T43 chain: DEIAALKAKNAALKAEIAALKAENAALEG

[44] = biological target: T44, 4H3417-AA; assay: two-hybrid library CCmax; settings: mean of both orientations
T44 chain: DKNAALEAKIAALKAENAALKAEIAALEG

[45] = biological target: T45, 4H3628-AA; assay: two-hybrid library CCmax; settings: mean of both orientations
T45 chain: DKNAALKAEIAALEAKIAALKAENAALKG

[46] = biological target: T46, 4H626-bN; assay: two-hybrid library CCNG1
T46 chain: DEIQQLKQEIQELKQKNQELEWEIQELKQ

[47] = biological target: T47, 4H591-bN; assay: two-hybrid library CCNG1
T47 chain: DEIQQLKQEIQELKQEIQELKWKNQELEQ

[48] = biological target: T48, 4H906-bN; assay: two-hybrid library CCNG1
T48 chain: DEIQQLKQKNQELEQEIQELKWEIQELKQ

interaction score [1]: -0.211
interaction score [2]: -1.09
interaction score [3]: -0.446
Binder: DEIAQLKQEIAELKQKIAELKWENAQLEQ [4H619-bA]

interaction score [19]: -0.189
interaction score [20]: -0.784
interaction score [21]: -0.665
interaction score [14]: -2.64
interaction score [22]: -0.474
interaction score [23]: -1.67
interaction score [24]: -1.06
interaction score [25]: -1.43
interaction score [26]: 2.25
Binder: DEIAQLKQENAELEQKIAELKWENAQLEQ [4H683-bA]

interaction score [27]: -1.47
interaction score [28]: -1.81
interaction score [29]: -0.548
interaction score [30]: -1.73
interaction score [31]: -0.731
interaction score [32]: -1.73
interaction score [33]: -1.76
interaction score [34]: -0.186
interaction score [35]: -1.71
interaction score [36]: -1.91
interaction score [37]: -1.01
interaction score [38]: 1.52
interaction score [39]: -0.913
interaction score [40]: -1.43
interaction score [41]: 1.28
interaction score [42]: -1.87
interaction score [43]: -0.98
interaction score [44]: -1.68
interaction score [45]: -1.99
Binder: DKIAALKAKNAALEAKIAALKAKNAALEG [4H2991-AA]

Continued, binder first:

Binder: DKNQELKKKIEELEREIWELKKKNQELER [4H3855-bH]
interaction score [4]: -0.875
interaction score [5]: -1.07
interaction score [6]: -2.56
interaction score [7]: -0.471
interaction score [8]: -1.88
interaction score [9]: -0.847
interaction score [10]: -0.861
interaction score [11]: 1.02
interaction score [12]: -0.607
interaction score [13]: 0.413
interaction score [14]: -2.06
interaction score [15]: -1.71
interaction score [16]: -0.688
interaction score [17]: 0.744
interaction score [18]: -1.26

Binder: DEIQQLKQEIQELKQEIQELKWKNQELEQ [4H591-bN]
interaction score [46]: -0.933
interaction score [47]: 1.27
interaction score [48]: -1.13
